# Experimental data as given in the supplement of paper PMC10567573.
# B1: TRIB1 (parent)
# chain: EIGTSDQIVPEYQEDSDISSFFC
# Variants of: B1
# Assay: protein stability index of a GFP-peptide fusion (GPS, HEK-293T) (PSI 1-6); higher = more stable
# Conditions: c terminus: native
# 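Note: lentivirally expressed fusions sorted by FACS into six bins by GFP to DsRed ratio, PSI derived from sequencing read proportions per bin multiplied by bin number.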
row,Variant,protein stability index
1,E14F,2.33
2,E14G,2.83
3,E14H,3.56
4,E14I,1.68
5,E14K,4.03
6,E14L,1.99
7,E14M,2.4
8,E14N,2.94
9,E14P,2
10,E14Q,3.37
11,E14R,4.42
12,E14S,2.88
13,E14T,2.81
14,E14V,2.08
15,E14W,1.7
16,E14Y,2.43
17,D15A,3.59
18,D15C,2.62
19,D15E,2.2
20,D15F,2.24
21,D15G,3.71
22,D15H,3.28
23,D15I,2.28
24,D15K,3.42

row,Variant,protein stability index
1,D15L,2.18
2,D15M,2.67
3,D15N,3.86
4,D15P,3.02
5,D15Q,2.92
6,D15R,4.24
7,D15S,3.33
8,D15T,3.4
9,D15V,2.81
10,D15W,2.9
11,D15Y,2.48
12,S16A,3.03
13,S16C,2.41
14,S16D,2.15
15,S16E,1.75
16,S16F,2.6
17,S16G,2.9
18,S16H,2.68
19,S16I,2.04
20,S16K,3.5
21,S16L,2.65
22,S16M,2.45
23,S16N,2.68
24,S16P,1.86

row,Variant,protein stability index
1,S16Q,3.32
2,S16R,4.11
3,S16T,2.56
4,S16V,3.02
5,S16W,2.27
6,S16Y,2.28
7,D17A,3.21
8,D17C,2.92
9,D17E,2.61
10,D17F,3.2
11,D17G,4.13
12,D17H,3.47
13,D17I,3.28
14,D17K,4.29
15,D17L,3.2
16,D17M,3.16
17,D17N,3.26
18,D17P,3.12
19,D17Q,2.94
20,D17R,3.48
21,D17S,3.13
22,D17T,3.29
23,D17V,2.87
24,D17W,2.42

row,Variant,protein stability index
1,D17Y,2.99
2,I18A,3.4
3,I18C,3.16
4,I18D,3.36
5,I18E,2.69
6,I18F,2.91
7,I18G,3.6
8,I18H,3.69
9,I18K,4.39
10,I18L,2.92
11,I18M,3.29
12,I18N,3.75
13,I18P,2.88
14,I18Q,3.9
15,I18R,4.26
16,I18S,3.64
17,I18T,3.64
18,I18V,3.08
19,I18W,2.41
20,I18Y,3.25
21,S19A,3.16
22,S19C,2.38
23,S19D,2.67
24,S19E,2.83

row,Variant,protein stability index
1,S19F,1.99
2,S19G,2.05
3,S19H,2.89
4,S19I,1.83
5,S19K,4.21
6,S19L,2.32
7,S19M,1.75
8,S19N,2.92
9,S19P,2.94
10,S19Q,3.48
11,S19R,3.83
12,S19T,2.35
13,S19V,2.72
14,S19W,1.56
15,S19Y,1.84
16,S20A,3.2
17,S20C,2.49
18,S20D,2.3
19,S20E,2.37
20,S20F,2.81
21,S20G,3.23
22,S20H,3.57
23,S20I,2.32
24,S20K,4.34

row,Variant,protein stability index
1,S20L,1.79
2,S20M,2.62
3,S20N,2.83
4,S20P,3.44
5,S20Q,3.21
6,S20R,3.89
7,S20T,3.07
8,S20V,2.53
9,S20W,2.35
10,S20Y,2.42
11,F21A,3.98
12,F21C,3.5
13,F21D,3.9
14,F21E,4.43
15,F21G,3.97
16,F21H,4.58
17,F21I,3.59
18,F21K,4.67
19,F21L,3.45
20,F21M,3.85
21,F21N,4.7
22,F21P,4.6
23,F21Q,4.23
24,F21R,3.64

row,Variant,protein stability index
1,F21S,4.08
2,F21T,4.78
3,F21V,3.89
4,F21W,2.89
5,F21Y,2.64
6,F22A,4.11
7,F22C,3.45
8,F22D,3.86
9,F22E,4.3
10,F22G,4.79
11,F22H,4.3
12,F22I,4.03
13,F22K,5.29
14,F22L,3.36
15,F22M,3.16
16,F22N,4.54
17,F22P,4.55
18,F22Q,4.82
19,F22R,4.7
20,F22S,4.48
21,F22T,4.48
22,F22V,3.88
23,F22W,1.98
